# Test results: PMC10616557 (iScience, 2023)
# Target: the molecule itself
# Assay: cross-linking
row,Protein,stoichiometry N
1,"MGNASFGSKEQKLLKRLRLLPALLILRAFKPHRK (peptide, UniProt O95661 1-34, looked up) [DIRAS3 N-terminal extension peptide, wild type (NTEwt)]",2
2,"MANASFGSKEQKLLKRLRLLPALLILRAFKPHRK (peptide, UniProt O95661 1-34, looked up) [DIRAS3 NTE peptide with mutation of the glycine myristoylation site (NTEG2A)]",2
